Target: recombinant LukG monomer (TCH1516) (Staphylococcus aureus strain TCH1516 (USA300 CA-MRSA))
Assay: BLI

Chain of recombinant LukG monomer (TCH1516) (Staphylococcus aureus strain TCH1516 (USA300 CA-MRSA)) (P21224 30-338 limits assumed): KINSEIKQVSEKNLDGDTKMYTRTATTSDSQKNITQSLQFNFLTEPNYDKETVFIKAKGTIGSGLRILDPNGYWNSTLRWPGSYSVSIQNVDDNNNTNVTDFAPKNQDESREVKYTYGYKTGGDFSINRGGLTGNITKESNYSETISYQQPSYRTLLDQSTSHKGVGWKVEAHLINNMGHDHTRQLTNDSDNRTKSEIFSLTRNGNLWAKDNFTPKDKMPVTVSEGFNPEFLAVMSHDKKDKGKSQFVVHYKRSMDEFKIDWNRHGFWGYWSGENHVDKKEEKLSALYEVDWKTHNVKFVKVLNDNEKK

recombinant LukH monomer (TCH1516) (natural protein)
stoichiometry N (molar ratio of the 2 monomers): 1

— PMC5058624
